Read-outs that look alike come from different tables or passages of the source.
Experiments:
DENV-4 VLP [1] = biological target: T1, DENV-4 VLP (Dengue virus serotype 4, strain …, UniProt P09866 114-774)
DENV-4 VLP [2] = biological target: T1, DENV-4 VLP; assay: Luminex, VLP-coupled beads
JE VLP [3] = biological target: T2, JE VLP (Japanese encephalitis virus, UniProt P27395); assay: Luminex bead assay (antigen on MagPlex beads, MFI)
T2 construct: virus-like particle; also called Japanese Encephalitis Virus VLP
T2 sequence (P27395 128-794 limits assumed): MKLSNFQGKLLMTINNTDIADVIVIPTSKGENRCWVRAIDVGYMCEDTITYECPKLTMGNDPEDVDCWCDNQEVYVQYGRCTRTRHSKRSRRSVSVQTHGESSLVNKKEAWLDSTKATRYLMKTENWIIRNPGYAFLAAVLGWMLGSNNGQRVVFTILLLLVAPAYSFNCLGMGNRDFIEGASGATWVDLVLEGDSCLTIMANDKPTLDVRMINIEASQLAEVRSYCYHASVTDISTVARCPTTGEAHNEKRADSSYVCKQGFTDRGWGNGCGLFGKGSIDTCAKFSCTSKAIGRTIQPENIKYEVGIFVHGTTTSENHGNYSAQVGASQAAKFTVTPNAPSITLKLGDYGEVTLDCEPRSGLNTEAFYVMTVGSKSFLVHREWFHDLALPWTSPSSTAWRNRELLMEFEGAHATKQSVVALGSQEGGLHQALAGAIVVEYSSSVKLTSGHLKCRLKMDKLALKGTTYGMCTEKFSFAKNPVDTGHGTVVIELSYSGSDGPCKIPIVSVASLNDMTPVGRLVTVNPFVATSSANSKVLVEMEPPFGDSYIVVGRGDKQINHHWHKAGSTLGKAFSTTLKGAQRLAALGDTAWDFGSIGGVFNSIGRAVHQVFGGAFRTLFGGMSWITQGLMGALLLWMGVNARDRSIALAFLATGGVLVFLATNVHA

JE VLP [4] = biological target: T2, JE VLP; assay: Luminex bead assay (antigen on MagPlex beads, MFI); remark: listed apart in the source
DENV-4 VLP [5] = biological target: T1, DENV-4 VLP; assay: Luminex bead assay (antigen on MagPlex beads, MFI)
JE VLP [6] = biological target: T2, JE VLP; assay: Luminex bead assay (antigen on MagPlex beads, MFI); remark: listed apart in the source
DENV-4 VLP [7] = biological target: T1, DENV-4 VLP; assay: Luminex bead assay (antigen on MagPlex beads, MFI); remark: listed apart in the source
JE VLP [8] = biological target: T2, JE VLP; assay: Luminex bead assay (antigen on MagPlex beads, MFI); remark: listed apart in the source

B1: DENV4-9G8 (antibody, V domains shown)
VH: QSLEESGGGLVKPGASLTLTCTASGFSFSYRYWMSWVRQAPGKRPEWIACIDTGNGDTYYASRAKGRFTIMKTSSTTVTLQMTSLTVADTATYFCARSDVTLTGYGYGNLWGPGTLVTVSS
VL: DSVMTQTPASVSEPVGGTVTINCQASHNIYNSLAWYQQKPGQPPKLLIYRASTLESGVPSRVKGSGYGTEYTLTISDLECADAATYYCQQYYGGDDDGFGFGGGTEVVVK
notes: also called Clone 9G8
Response (nm) (DENV-4 VLP [1]): 0.137 nm
koff (DENV-4 VLP [1]): < 2e-05 s⁻¹
EC50 (DENV-4 VLP [2]): 0.0713 µg/mL
binding result (JE VLP [3]): no binding (tested: 10000 ng/mL)

B2: DENV4-7D5 (antibody, V domains shown)
VH: QSVEESGGRLVTPGTPLTLTCTVSGIDLSSWEMGWVRQAPGKGLEWIGIIFPSGTIYYANWAKGRFAISKASTTVDLKITSPTTEDTATYFCGRHGGSLYLNIWGPGTLVTVSL
VL: AQVLTQTPSPVSAAVGGTVTINCQASQSVYVNRNLAWYQQKPGQPPKVLIYEASKLASGVPSRFKGSGSGTQFTLTISGVQCDDAATYYCQGEFGCSSADCIAFGGGTEVVVK
notes: also called Clone 7D5
binding result (JE VLP [4]): no binding (tested: 10000 ng/mL)
Response (nm) (DENV-4 VLP [1]): 2.45 nm
koff (DENV-4 VLP [1]): 3.56e-05 s⁻¹
EC50 (DENV-4 VLP [2]): 0.0232 µg/mL

B3: DENV4-8C7 (antibody, V domains shown)
VH: QSVEESGGRLVTPGTPLTLTCTVSGIDLSSYEMGWVRQAPGKGLEWIGIIFPSGTIYYANWAKGRFTISKTSTTVDLKITSPTTEDTATYFCGRHGGSLYLNIWGPGTLVTVSL
VL: AQVLTQTPSPVSAAVGGTVTINCQASQSVYVNRNLAWYQQKPGQPPKVLIYEASKLASGVPSRFKGSGSGTQFTLTISGVQCDDAATYYCQGEFGCSSADCIAFGGGTEVVVK
notes: also called Clone 8C7
Response (nm) (DENV-4 VLP [1]): 2.38 nm
koff (DENV-4 VLP [1]): 3.32e-05 s⁻¹
EC50 (DENV-4 VLP [2]): 0.0176 µg/mL
binding result (JE VLP [3]): no binding (tested: 10000 ng/mL)

B4: DENV4-5B11 (antibody, V domains shown)
VH: QSVEESGGRLVTPGTPLTLTCTVSGFSLSDSAMSWVRQAPGKGLEWIGYIYAGSGTTYYASWAKGRFTISKTSTTVDLKITSPTTEDTATYFCARATAYVGYGYGDDTFDPWGPGTLVTVSS
VL: AYDMTQTPASVEVAVGGTVTIKCQASQSISSYLSWYQQKPGQRPKLLIYRASTLASGVSSRFKGSGSGTEFTLTISGVQCDDAATYYCQQGYSNSDVDNVFGGGTEVVVK
notes: also called Clone 5B11
binding result (JE VLP [4]): no binding (tested: 10000 ng/mL)
Response (nm) (DENV-4 VLP [1]): 2.39 nm
koff (DENV-4 VLP [1]): 2.36e-05 s⁻¹
EC50 (DENV-4 VLP [2]): 0.0192 µg/mL

B5: DENV4-7G4 (antibody, V domains shown)
VH: QSVEESGGRLVTPGTPLTLTCTVSGFSLSSCAMTWVRQAPGKGLEWIGYIYVDSDTTYYASWAKGRFTISTTSTTVDLRITSPTTEDTATYFCARTTAYVGGGYGDDTFDPWGPGTLVTVSS
VL: DVVMTQTPASVEAAVGGTVTINCQASQNINSYLSWYQQKPGQRPKLLIYRAFTLASGVSSRFKGSGSGTQFTLTISGVECADAATYYCQQGYSFSGVDNVFGGGTEVVVK
notes: also called Clone 7G4
binding result (JE VLP [4]): no binding (tested: 10000 ng/mL)
Response (nm) (DENV-4 VLP [1]): 2.16 nm
koff (DENV-4 VLP [1]): < 2e-05 s⁻¹
EC50 (DENV-4 VLP [2]): 0.0214 µg/mL

B6: DENV2-3H11 (antibody, V domains shown)
VH: QSVEESGGRLVTPGTPLTLTCTVSGFSLINYDMSWIRQAPGKGLEWIGMVSGGGHTNYASWANGRFTISKTSSTTMDLKITSPTTEDTASYFCGRWDIWGPGTLVTVSL
VL: AVVVTQTASPVSAAVGGTVTISCQSSQSVYDDNWLAWYQQKPGQPPKQLIYRASRLASGVPSRFSGTGSGTQFTLTISGVQCDDAATYYCLGGYVDDGDTTFGGGTEVVVK
notes: also called DENV2-3H111
binding result (DENV-4 VLP [5]): no binding (tested: 10000 ng/mL)
binding result (JE VLP [6]): no binding (tested: 10000 ng/mL)

B7: DENV4-7F2 (antibody, V domains shown)
VH: QSVEESGGRLVTPGTPLTLTCTVSGIDLSYYAMGWVRQAPGEGLECIGFIDTGDSAYYASWAKGRFTISKTSSTTVDLKITSPTPEDTATYFCGRSLSSYYDWDAFDPWGPGTLVTVSS
VL: AYDMTQTPASVEVAVGGTVTINCQASQTIGNLLAWYQQKPGQRPKLLIYRASTLASGVPSRFKGSGSGTQFTLTISGVECADAATYYCQQGASANDIDNSFGGGTAVVVK
notes: also called Clone 7F2
binding result (JE VLP [4]): no binding (tested: 10000 ng/mL)
Response (nm) (DENV-4 VLP [1]): 2.32 nm
koff (DENV-4 VLP [1]): 3.67e-05 s⁻¹
EC50 (DENV-4 VLP [2]): 0.0407 µg/mL

B8: DENV4-10A11 (antibody, V domains shown)
VH: QSVEESGGRLVTPGTPLTLTCTVSGINLSFYAMGWVRQAPGKGLECVGFIDTDNSAYYASWAKGRFTISKTSTTVDLKITSPTTEDTATYFCARSLSSFYDWDAFDPWGPGTLVTVSS
VL: AYDMTQTPASVEVAVGGTVTIKCLASQSISNLLAWYQQKPGQRPKLLIYRASTLASGVPSRFKGSGSGTQFTLTISGVECADAATYYCQQGASNSDIDNAFGGGTEVVVK
notes: also called Clone 10A11; 10A1l
Response (nm) (DENV-4 VLP [1]): 2.17 nm
koff (DENV-4 VLP [1]): 4.17e-05 s⁻¹
EC50 (DENV-4 VLP [2]): 0.0236 µg/mL
binding result (JE VLP [3]): no binding (tested: 10000 ng/mL)

B9: DENV2-5F4 (antibody, V domains shown)
VH: QSVEESGGRLVKPDETLTLTCTVSGIDLSNTVISWVRQAPGKGLEYIGMITPSGSAYSATWAKGRVTISRTSTTVDLKIASPTTEDTATYFCARIAWSTGRNDIWGPGTLVTVSS
VL: AAVLTQTPPSVSAAVGGTVTIKCQSSQSVYNNNALSWYQQKPGQPPKLLIYQASKLSSGVSSRFSGSGSGTHFTLTISGVQCDDAATYYCLGIYDDDVDNTFGGGTEVVVG
binding result (DENV-4 VLP [7]): no binding (tested: 10000 ng/mL)
binding result (JE VLP [8]): no binding (tested: 10000 ng/mL)

B10: DENV2-8D8 (antibody, V domains shown)
VH: QSLEESGGRLVKPDETLTLTCTVSGIDLSSTIITWVRQAPGKGLEYIGIIGSSGSIISANWAKGRFTISRTSTTVDLKMTSLTTEDTATYFCARIAWSTGRNDIWGPGTLVTVSS
VL: AAVLTQTPPSVSAAVGGTVTISCQSSQSVYNNNALSWYQQKPGQPPKLLIYLASNLASGVPSRFSGSGSGTQFTLTISGVQCDDAATYHCLGVDDDDVDNTFGGGTEVVVK
binding result (DENV-4 VLP [7]): no binding (tested: 10000 ng/mL)
binding result (JE VLP [8]): no binding (tested: 10000 ng/mL)

From patent US20260167703A1 (Takeda / Millennium, published 2026)
